B1: dBBDu183H H93V / dBBDu072L (antibody, name in Kabat numbering, V domains shown)
VH: QVQLVESGGGLVQPGRSLRLSCAASGFTFSNAWMHWVRQAPGKGLEWVAQIKDKGNAYAAYYAPSVKGRFTISRDDSKNSIYLQMNSLKTEDTAVYYCVYVHYASASTVLPAFGVDAWGQGTTVTVSS
VL: DIVMTQSPLSLPVTPGEPASISCQASQELVHMNRNTYLHWYQQKPGQAPRLLIYKVSNRFPGVPDRFSGSGSGTDFTLKISRVEAEDVGVYYCAQGTSVPFTFGQGTKLEIK
B2: dBBDu183H A100fV / dBBDu072L (antibody, name in Kabat numbering, V domains shown)
VH: QVQLVESGGGLVQPGRSLRLSCAASGFTFSNAWMHWVRQAPGKGLEWVAQIKDKGNAYAAYYAPSVKGRFTISRDDSKNSIYLQMNSLKTEDTAVYYCHYVHYASASTVLPVFGVDAWGQGTTVTVSS
VL: DIVMTQSPLSLPVTPGEPASISCQASQELVHMNRNTYLHWYQQKPGQAPRLLIYKVSNRFPGVPDRFSGSGSGTDFTLKISRVEAEDVGVYYCAQGTSVPFTFGQGTKLEIK
B3: dBBDu183H A102V / dBBDu072L (antibody, name in Kabat numbering, V domains shown)
VH: QVQLVESGGGLVQPGRSLRLSCAASGFTFSNAWMHWVRQAPGKGLEWVAQIKDKGNAYAAYYAPSVKGRFTISRDDSKNSIYLQMNSLKTEDTAVYYCHYVHYASASTVLPAFGVDVWGQGTTVTVSS
VL: DIVMTQSPLSLPVTPGEPASISCQASQELVHMNRNTYLHWYQQKPGQAPRLLIYKVSNRFPGVPDRFSGSGSGTDFTLKISRVEAEDVGVYYCAQGTSVPFTFGQGTKLEIK
B4: dBBDu183H A100V / dBBDu072L (antibody, name in Kabat numbering, V domains shown)
VH: QVQLVESGGGLVQPGRSLRLSCAASGFTFSNAWMHWVRQAPGKGLEWVAQIKDKGNAYAAYYAPSVKGRFTISRDDSKNSIYLQMNSLKTEDTAVYYCHYVHYASVSTVLPAFGVDAWGQGTTVTVSS
VL: DIVMTQSPLSLPVTPGEPASISCQASQELVHMNRNTYLHWYQQKPGQAPRLLIYKVSNRFPGVPDRFSGSGSGTDFTLKISRVEAEDVGVYYCAQGTSVPFTFGQGTKLEIK
B5: dBBDu183H Y94V / dBBDu072L (antibody, name in Kabat numbering, V domains shown)
VH: QVQLVESGGGLVQPGRSLRLSCAASGFTFSNAWMHWVRQAPGKGLEWVAQIKDKGNAYAAYYAPSVKGRFTISRDDSKNSIYLQMNSLKTEDTAVYYCHVVHYASASTVLPAFGVDAWGQGTTVTVSS
VL: DIVMTQSPLSLPVTPGEPASISCQASQELVHMNRNTYLHWYQQKPGQAPRLLIYKVSNRFPGVPDRFSGSGSGTDFTLKISRVEAEDVGVYYCAQGTSVPFTFGQGTKLEIK
B6: dBBDu183H T100bV / dBBDu072L (antibody, name in Kabat numbering, V domains shown)
VH: QVQLVESGGGLVQPGRSLRLSCAASGFTFSNAWMHWVRQAPGKGLEWVAQIKDKGNAYAAYYAPSVKGRFTISRDDSKNSIYLQMNSLKTEDTAVYYCHYVHYASASVVLPAFGVDAWGQGTTVTVSS
VL: DIVMTQSPLSLPVTPGEPASISCQASQELVHMNRNTYLHWYQQKPGQAPRLLIYKVSNRFPGVPDRFSGSGSGTDFTLKISRVEAEDVGVYYCAQGTSVPFTFGQGTKLEIK
B7: dBBDu183H Y97V / dBBDu072L (antibody, name in Kabat numbering, V domains shown)
VH: QVQLVESGGGLVQPGRSLRLSCAASGFTFSNAWMHWVRQAPGKGLEWVAQIKDKGNAYAAYYAPSVKGRFTISRDDSKNSIYLQMNSLKTEDTAVYYCHYVHVASASTVLPAFGVDAWGQGTTVTVSS
VL: DIVMTQSPLSLPVTPGEPASISCQASQELVHMNRNTYLHWYQQKPGQAPRLLIYKVSNRFPGVPDRFSGSGSGTDFTLKISRVEAEDVGVYYCAQGTSVPFTFGQGTKLEIK
B8: dBBDu183H Y94G / dBBDu072L (antibody, name in Kabat numbering, V domains shown)
VH: QVQLVESGGGLVQPGRSLRLSCAASGFTFSNAWMHWVRQAPGKGLEWVAQIKDKGNAYAAYYAPSVKGRFTISRDDSKNSIYLQMNSLKTEDTAVYYCHGVHYASASTVLPAFGVDAWGQGTTVTVSS
VL: DIVMTQSPLSLPVTPGEPASISCQASQELVHMNRNTYLHWYQQKPGQAPRLLIYKVSNRFPGVPDRFSGSGSGTDFTLKISRVEAEDVGVYYCAQGTSVPFTFGQGTKLEIK
B9: dBBDu183H H93G / dBBDu072L (antibody, name in Kabat numbering, V domains shown)
VH: QVQLVESGGGLVQPGRSLRLSCAASGFTFSNAWMHWVRQAPGKGLEWVAQIKDKGNAYAAYYAPSVKGRFTISRDDSKNSIYLQMNSLKTEDTAVYYCGYVHYASASTVLPAFGVDAWGQGTTVTVSS
VL: DIVMTQSPLSLPVTPGEPASISCQASQELVHMNRNTYLHWYQQKPGQAPRLLIYKVSNRFPGVPDRFSGSGSGTDFTLKISRVEAEDVGVYYCAQGTSVPFTFGQGTKLEIK
B10: dBBDu183H S99V / dBBDu072L (antibody, name in Kabat numbering, V domains shown)
VH: QVQLVESGGGLVQPGRSLRLSCAASGFTFSNAWMHWVRQAPGKGLEWVAQIKDKGNAYAAYYAPSVKGRFTISRDDSKNSIYLQMNSLKTEDTAVYYCHYVHYAVASTVLPAFGVDAWGQGTTVTVSS
VL: DIVMTQSPLSLPVTPGEPASISCQASQELVHMNRNTYLHWYQQKPGQAPRLLIYKVSNRFPGVPDRFSGSGSGTDFTLKISRVEAEDVGVYYCAQGTSVPFTFGQGTKLEIK
B11: dBBDu183H D101V / dBBDu072L (antibody, name in Kabat numbering, V domains shown)
VH: QVQLVESGGGLVQPGRSLRLSCAASGFTFSNAWMHWVRQAPGKGLEWVAQIKDKGNAYAAYYAPSVKGRFTISRDDSKNSIYLQMNSLKTEDTAVYYCHYVHYASASTVLPAFGVVAWGQGTTVTVSS
VL: DIVMTQSPLSLPVTPGEPASISCQASQELVHMNRNTYLHWYQQKPGQAPRLLIYKVSNRFPGVPDRFSGSGSGTDFTLKISRVEAEDVGVYYCAQGTSVPFTFGQGTKLEIK
B12: dBBDu183H P100eV / dBBDu072L (antibody, name in Kabat numbering, V domains shown)
VH: QVQLVESGGGLVQPGRSLRLSCAASGFTFSNAWMHWVRQAPGKGLEWVAQIKDKGNAYAAYYAPSVKGRFTISRDDSKNSIYLQMNSLKTEDTAVYYCHYVHYASASTVLVAFGVDAWGQGTTVTVSS
VL: DIVMTQSPLSLPVTPGEPASISCQASQELVHMNRNTYLHWYQQKPGQAPRLLIYKVSNRFPGVPDRFSGSGSGTDFTLKISRVEAEDVGVYYCAQGTSVPFTFGQGTKLEIK
B13: dBBDu183H A98V / dBBDu072L (antibody, name in Kabat numbering, V domains shown)
VH: QVQLVESGGGLVQPGRSLRLSCAASGFTFSNAWMHWVRQAPGKGLEWVAQIKDKGNAYAAYYAPSVKGRFTISRDDSKNSIYLQMNSLKTEDTAVYYCHYVHYVSASTVLPAFGVDAWGQGTTVTVSS
VL: DIVMTQSPLSLPVTPGEPASISCQASQELVHMNRNTYLHWYQQKPGQAPRLLIYKVSNRFPGVPDRFSGSGSGTDFTLKISRVEAEDVGVYYCAQGTSVPFTFGQGTKLEIK
B14: dBBDu183H S100aV / dBBDu072L (antibody, name in Kabat numbering, V domains shown)
VH: QVQLVESGGGLVQPGRSLRLSCAASGFTFSNAWMHWVRQAPGKGLEWVAQIKDKGNAYAAYYAPSVKGRFTISRDDSKNSIYLQMNSLKTEDTAVYYCHYVHYASAVTVLPAFGVDAWGQGTTVTVSS
VL: DIVMTQSPLSLPVTPGEPASISCQASQELVHMNRNTYLHWYQQKPGQAPRLLIYKVSNRFPGVPDRFSGSGSGTDFTLKISRVEAEDVGVYYCAQGTSVPFTFGQGTKLEIK
B15: dBBDu183H G100hV / dBBDu072L (antibody, name in Kabat numbering, V domains shown)
VH: QVQLVESGGGLVQPGRSLRLSCAASGFTFSNAWMHWVRQAPGKGLEWVAQIKDKGNAYAAYYAPSVKGRFTISRDDSKNSIYLQMNSLKTEDTAVYYCHYVHYASASTVLPAFVVDAWGQGTTVTVSS
VL: DIVMTQSPLSLPVTPGEPASISCQASQELVHMNRNTYLHWYQQKPGQAPRLLIYKVSNRFPGVPDRFSGSGSGTDFTLKISRVEAEDVGVYYCAQGTSVPFTFGQGTKLEIK

biological target: Human CD137 ECD (human); assay: SPR, vs parent H183/L072
Sequence (chain, as listed by the source limits assumed): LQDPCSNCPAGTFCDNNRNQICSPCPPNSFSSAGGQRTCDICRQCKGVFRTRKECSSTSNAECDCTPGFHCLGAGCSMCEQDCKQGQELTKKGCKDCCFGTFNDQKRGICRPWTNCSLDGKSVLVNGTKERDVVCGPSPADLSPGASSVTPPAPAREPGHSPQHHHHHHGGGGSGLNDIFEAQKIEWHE

Row | Binder | fold change of affinity
1 | B1 | 0 fold
2 | B2 | 0 fold
3 | B3 | 0 fold
4 | B4 | 0 fold
5 | B5 | 0 fold
6 | B6 | 0 fold
7 | B7 | 0 fold
8 | B8 | 0 fold
9 | B9 | 0 fold
10 | B10 | 0 fold
11 | B11 | 0 fold
12 | B12 | 0 fold
13 | B13 | 0 fold
14 | B14 | 0 fold
15 | B15 | 0 fold
